According to paper PMC4117486, “Investigation of Endoglin Wild-Type and Missense Mutant Protein Heterodimerisation Using Fluorescence Microscopy Based IF, BiFC and FRET Analyses” (PLoS ONE, 2014):

B2: endoglin wild-type, EYFP- or ECFP-tagged (receptor, human, UniProt P17813 26-658, looked up)
chain: ETVHCDLQPVGPERGEVTYTTSQVSKGCVAQAPNAILEVHVLFLEFPTGPSQLELTLQASKQNGTWPREVLLVLSVNSSVFLHLQALGIPLHLAYNSSLVTFQEPPGVNTTELPSFPKTQILEWAAERGPITSAAELNDPQSILLRLGQAQGSLSFCMLEASQDMGRTLEWRPRTPALVRGCHLEGVAGHKEAHILRVLPGHSAGPRTVTVKVELSCAPGDLDAVLILQGPPYVSWLIDANHNMQIWTTGEYSFKIFPEKNIRGFKLPDTPQGLLGEARMLNASIVASFVELPLASIVSLHASSCGGRLQTSPAPIQTTPPKDTCSPELLMSLIQTKCADDAMTLVLKKELVAHLKCTITGLTFWDPSCEAEDRGDKFVLRSAYSSCGMQVSASMISNEAVVNILSSSSPQRKKVHCLNMDSLSFQLGLYLSPHFLQASNTIEPGQQSFVQVRVSPSVSEFLLQLDSCHLDLGPEGGTVELIQGRAAKGNCVSLLSPSPEGDPRFSFLLHFYTVPIPKTGTLSCTVALRPKTGSQDQEVHRTVFMRLNIISPDLSGCTSKGLVLPAVLGITFGAFLIGALLTAALWYIYSHTRSPSKREPVVAVAAPASSESSSTNHSIGSTQSTPCSTSSMA
notes: endoglin (CD105), human, wild type; EYFP-tagged with the ECFP-tagged receptors and with soluble ECFP; ECFP-tagged with the EYFP-tagged mutants; both versions together for the homodimer; also called endoglin^wt-EYFP; endoglin^wt-ECFP; source: CHO cells, transiently co-transfected (50 ng of each construct per 100 000 cells), in living cells; not shown: EYFP (acceptor) or ECFP (donor), C-terminal, …
B3: endoglin S480C, EYFP-tagged (receptor, human, UniProt P17813 26-658, looked up)
chain: ETVHCDLQPVGPERGEVTYTTSQVSKGCVAQAPNAILEVHVLFLEFPTGPSQLELTLQASKQNGTWPREVLLVLSVNSSVFLHLQALGIPLHLAYNSSLVTFQEPPGVNTTELPSFPKTQILEWAAERGPITSAAELNDPQSILLRLGQAQGSLSFCMLEASQDMGRTLEWRPRTPALVRGCHLEGVAGHKEAHILRVLPGHSAGPRTVTVKVELSCAPGDLDAVLILQGPPYVSWLIDANHNMQIWTTGEYSFKIFPEKNIRGFKLPDTPQGLLGEARMLNASIVASFVELPLASIVSLHASSCGGRLQTSPAPIQTTPPKDTCSPELLMSLIQTKCADDAMTLVLKKELVAHLKCTITGLTFWDPSCEAEDRGDKFVLRSAYSSCGMQVSASMISNEAVVNILSSSSPQRKKVHCLNMDSLSFQLGLYLSPHFLQASNTIEPGQQSFVQVRVCPSVSEFLLQLDSCHLDLGPEGGTVELIQGRAAKGNCVSLLSPSPEGDPRFSFLLHFYTVPIPKTGTLSCTVALRPKTGSQDQEVHRTVFMRLNIISPDLSGCTSKGLVLPAVLGITFGAFLIGALLTAALWYIYSHTRSPSKREPVVAVAAPASSESSSTNHSIGSTQSTPCSTSSMA
notes: endoglin (CD105), human, missense mutant S480C (found in a Scottish HHT family); site-directed mutagenesis on pCMV5-endoglin wild type, moved into pEYFP-N1; also called mutant S480C; source: CHO cells, transiently co-transfected (50 ng of each construct per 100 000 cells), in living cells; not shown: EYFP, C-terminal, kept

Tests used:
Assay in all cases: FRET or BRET; microscopic FRET in living CHO cells, ECFP donor and EYFP acceptor, 50 ng of each construct per 100 000 cells, 24 h after transfection, HEPES buffered ringer solution; FRET index (FI) = FRET efficiency x area with FRET; FI<51 no interaction, 51-99 weak or false positive, >=100 interaction; at least 30 cells per sample
[1] = target: B3; conditions: partners not purified
[2] = target: B2; conditions: partners not purified
[3] = target: the molecule itself

B1: TβRII, ECFP- or EYFP-tagged (receptor, UniProt P37173 23-567, looked up)
chain: TIPPHVQKSVNNDMIVTDNNGAVKFPQLCKFCDVRFSTCDNQKSCMSNCSITSICEKPQEVCVAVWRKNDENITLETVCHDPKLPYHDFILEDAASPKCIMKEKKKPGETFFMCSCSSDECNDNIIFSEEYNTSNPDLLLVIFQVTGISLLPPLGVAISVIIIFYCYRVNRQQKLSSTWETGKTRKLMEFSEHCAIILEDDRSDISSTCANNINHNTELLPIELDTLVGKGRFAEVYKAKLKQNTSEQFETVAVKIFPYEEYASWKTEKDIFSDINLKHENILQFLTAEERKTELGKQYWLITAFHAKGNLQEYLTRHVISWEDLRKLGSSLARGIAHLHSDHTPCGRPKMPIVHRDLKSSNILVKNDLTCCLCDFGLSLRLDPTLSVDDLANSGQVGTARYMAPEVLESRMNLENVESFKQTDVYSMALVLWEMTSRCNAVGEVKDYEPPFGSKVREHPCVESMKDNVLRDRGRPEIPSFWLNHQGIQMVCETLTECWDHDPEARLTAQCVAERFSELEHLDRLSGRSCSEEKIPEDGSLNTTK
notes: TβRII, TGF-β type II receptor; The methods name only the EYFP version; the results use an ECFP-tagged version; also called TβRII-EYFP; TGF-β type-II receptor; source: CHO cells, transiently co-transfected, in living cells
With B1 the “% of cells clearly FRET-positive (FRET index >=100)” value [1] was 3%, the “% of cells in FRET index group 2 (FI 51-99, weak or false positive)” value [1] was 10% and the “mean FRET index of the positive cells” value [1] was 147 FRET index. The “% of cells clearly FRET-positive (FRET index >=100)” value [2] was 62%, the “% of cells in FRET index group 2 (FI 51-99, weak or false positive)” value [2] was 18% and the “mean FRET index of the positive cells” value [2] was 293 FRET index.

With B2 the “% of cells clearly FRET-positive (FRET index >=100)” value [3] was 100% and the “mean FRET index of the positive cells” value [3] was 373 FRET index.

For B3, the “% of cells clearly FRET-positive (FRET index >=100)” value [2] was 65%, the “% of cells in FRET index group 2 (FI 51-99, weak or false positive)” value [2] was 19% and the “mean FRET index of the positive cells” value [2] was 239 FRET index.

B4: endoglin G52V, EYFP-tagged (with an ECFP-tagged copy for the homodimer) (receptor, human, UniProt P17813 26-658, looked up)
chain: ETVHCDLQPVGPERGEVTYTTSQVSKVCVAQAPNAILEVHVLFLEFPTGPSQLELTLQASKQNGTWPREVLLVLSVNSSVFLHLQALGIPLHLAYNSSLVTFQEPPGVNTTELPSFPKTQILEWAAERGPITSAAELNDPQSILLRLGQAQGSLSFCMLEASQDMGRTLEWRPRTPALVRGCHLEGVAGHKEAHILRVLPGHSAGPRTVTVKVELSCAPGDLDAVLILQGPPYVSWLIDANHNMQIWTTGEYSFKIFPEKNIRGFKLPDTPQGLLGEARMLNASIVASFVELPLASIVSLHASSCGGRLQTSPAPIQTTPPKDTCSPELLMSLIQTKCADDAMTLVLKKELVAHLKCTITGLTFWDPSCEAEDRGDKFVLRSAYSSCGMQVSASMISNEAVVNILSSSSPQRKKVHCLNMDSLSFQLGLYLSPHFLQASNTIEPGQQSFVQVRVSPSVSEFLLQLDSCHLDLGPEGGTVELIQGRAAKGNCVSLLSPSPEGDPRFSFLLHFYTVPIPKTGTLSCTVALRPKTGSQDQEVHRTVFMRLNIISPDLSGCTSKGLVLPAVLGITFGAFLIGALLTAALWYIYSHTRSPSKREPVVAVAAPASSESSSTNHSIGSTQSTPCSTSSMA
notes: endoglin (CD105), human, HHT1 missense mutant G52V; also called mutant G52V; source: CHO cells, transiently co-transfected (50 ng of each construct per 100 000 cells), in living cells; not shown: EYFP (acceptor) or ECFP (donor, homodimer only), C-terminal, kept
For B4, the “% of cells clearly FRET-positive (FRET index >=100)” value [2] was 51%, the “% of cells in FRET index group 2 (FI 51-99, weak or false positive)” value [2] was 27% and the “mean FRET index of the positive cells” value [2] was 222 FRET index. For the same binder, the “% of cells clearly FRET-positive (FRET index >=100)” value [3] was ≥ 75%, the “% of cells in FRET index group 2 (FI 51-99, weak or false positive)” value [3] was 15% and the “mean FRET index of the positive cells” value [3] was 204 FRET index.

B5: ALK5, ECFP- or EYFP-tagged (receptor, UniProt P36897 34-503, looked up)
chain: LQCFCHLCTKDNFTCVTDGLCFVSVTETTDKVIHNSMCIAEIDLIPRDRPFVCAPSSKTGSVTTTYCCNQDHCNKIELPTTVKSSPGLGPVELAAVIAGPVCFVCISLMLMVYICHNRTVIHHRVPNEEDPSLDRPFISEGTTLKDLIYDMTTSGSGSGLPLLVQRTIARTIVLQESIGKGRFGEVWRGKWRGEEVAVKIFSSREERSWFREAEIYQTVMLRHENILGFIAADNKDNGTWTQLWLVSDYHEHGSLFDYLNRYTVTVEGMIKLALSTASGLAHLHMEIVGTQGKPAIAHRDLKSKNILVKKNGTCCIADLGLAVRHDSATDTIDIAPNHRVGTKRYMAPEVLDDSINMKHFESFKRADIYAMGLVFWEIARRCSIGGIHEDYQLPYYDLVPSDPSVEEMRKVVCEQKLRPNIPNRWQSCEALRVMAKIMRECWYANGAARLTALRIKKTLSQLSQQEGIKM
notes: ALK5, TGF-β type I receptor; The methods name only the EYFP version; the results use an ECFP-tagged version; also called ALK5-EYFP; source: CHO cells, transiently co-transfected, in living cells
For B5, the “% of cells clearly FRET-positive (FRET index >=100)” value [1] was 13%, the “% of cells in FRET index group 2 (FI 51-99, weak or false positive)” value [1] was 30% and the “mean FRET index of the positive cells” value [1] was 129 FRET index. For the same binder, the “% of cells clearly FRET-positive (FRET index >=100)” value [2] was 36%, the “% of cells in FRET index group 2 (FI 51-99, weak or false positive)” value [2] was 16% and the “mean FRET index of the positive cells” value [2] was 243 FRET index.
